Data as given in article PMC12065904, “Mapping the interaction surface between CaVβ and actin and its role in calcium channel clearance” (Nature Communications, 2025).

Target: rabbit skeletal muscle actin, polymerized in vitro (F-actin) (rabbit, UniProt P68135 1-377)
Assay: co-sedimentation; F-actin cosedimentation: CaVβ proteins incubated with polymerized actin in polymerization buffer (0.2 mM CaCl2, 50 mM KCl, 2 mM MgCl2, 1 mM ATP, 5 mM HEPES pH 8.0), 25 µM phalloidin; 150,000 × g, 20 min, 4 °C; densitometry of pellet over total; also at 30–150 mM NaCl and after 30 or 90 min of incubation
Conditions: both partners purified

bound fraction: 0.24 ± 0.03 fraction
B1: CaVβ2-core WT (core region of rat CaVβ2, residues 23–422) (domain or fragment)
chain: not shown
notes: rat CaVβ2 (voltage-gated calcium channel β2 subunit), UniProtKB Q8VGC3-2, core region (SH3 and GK domains), residues 23–422; Expressed from pRSETB
